Data from the nanobody polyreactivity screen of Harvey et al. (2022).

Assay: yeast display, Sf9 membrane polyspecificity reagent, FACS + sequencing; frameworks hold sequencing errors
How it was run: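 Synthetic nanobody libraries on Saccharomyces cerevisiae BJ5465 were galactose-induced for 36–48 hours, stained 1 hour at 4 °C with 10% biotinylated, detergent-solubilized Sf9 membrane reagent and enriched on streptavidin microbeads. FACS then separated cells into low and high (top ~1%) gates by anti-HA (expression) and streptavidin (reagent binding) fluorescence. Genes were colony-PCR amplified, MiSeq 2 × 250 sequenced and CDR-length filtered. A clone's polyreactivity label is that of its gate of origin.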

Sequence | polyreactivity (PSR sort gate)
QVQLVESGGGLVQAGGSLRLSCAASGSIFYVYAMGWYRQAPGKERELVASINKYGGSTYYADSVKGRFTISRDNAKNTVYLQMNSLKPADTAVYYCAARTGWPRVGFQYPAHVGFDYWGQGTQVTVSS | low polyreactivity
QVQLVESGGGLVQAGGSLRLSCAASGSIFYVYAMGWYRQSPGKERELVAAITSSGTTNYADSVKGRFTISRDNAKNTVYLLMNSLKPEDSAVYYCAADPDSGHVRFDYWGQGTQVTVSS | low polyreactivity
QVQLVESGGGLVQAGGSLRLSCAASGSIFYWNAMGWYRQAPGKEREFVADISQSGDSTYYADSVKGRFTISRDNAKNTVYLQMNSLKPEDTAVYYCAAQFLSYAWDYDYWGQGTQVTVSS | low polyreactivity
QVQLVESGGGLVQAGGSLRLSCAASGSIFYWYAMGWYRPAPGKERELVAAISYSGGSTYADSVKGRFTISRDNAKNTVYLQMNSLKPEDTAVYYCAVGYYRFGRFLGYYWGQGTQVTVSS | high polyreactivity
QVQLVESGGGLVQAGGSLRLSCAASGSIFYWYAMGWYRQAPGKEREFVAGITGRGGSTYYADSVKGRFTISRDNAKNTVYLQMNSLKPEDTAVYYADFVKYGKYYQRYDYWGQGTQVTVSS | high polyreactivity
QVQLVESGGGLVQAGGSLRLSCAASGSIFYWYAMGWYRQAPGKERELVAAITWSGGSTYYADSVKGRFTISRDNAKNTVYLQMNSLKPEDTAVYYCNKVPYYGAYSSYDYWGQGTQVTVSS | high polyreactivity
QVQLVESGGGLVQAGGSLRLSCAASGSIFYWYAMGWYRQAPGKERELVASIRWSGGTYYADSVKGRFTISRDNAKNTVYLQMNSLKPEDTAVYYCNKGGGRGHFEYWGQGTQVTVSS | low polyreactivity
QVQLVESGGGLVQAGGSLRLSCAASGSIFYWYAMGWYRQARGKERELVAGITYSGGNTYYADSVKGRFTISRDNAKNTVYLQMNSLKPEDTAVYYCAATRGYWRKWRMDYWGQGTQVTVSS | high polyreactivity
QVQLVESGGGLVQAGGSLRLSCAASGSIFYWYDMGWYRQAPGKERELVAAITNDGDSTYYADSVKGRFTISRDNAKNTVYLQMNSLKPEDTAVYYCAADVLFYYEYGSWGQGTQVTVSS | low polyreactivity
QVQLVESGGGLVQAGGSLRLSCAASGSIFYYNAMGWYRQAPGKERELVAAIRRSGGRTYYADSVKGRFTISRDNAKNTVYLQMNSLKPEDTAVYYCAAVHYDRVTGQVDHDYWGQGTQVTVSS | high polyreactivity
QVQLVESGGGLVQAGGSLRLSCAASGSIFYYNAMGWYRQAPGKERELVAAISWSGDSTYYADSVKGRFTISRDNAKNTVYLQMNSLKPEDTAVYYCNTDLVPWTEYWYDYWGQGTQVTVSS | low polyreactivity
QVQLVESGGGLVQAGGSLRLSCAASGSIFYYNAMGWYRQAPGKERELVAAITRSGGRTYYADSVKGRFTISRDNAKTTVYLQMNSLKPEDTAVYSCAARSAGPVTTLKYYYWGHGTQVTVSS | high polyreactivity
QVQLVESGGGLVQAGGSLRLSCAASGSIFYYNAMGWYRQAPGKERELVATIRTSGGSTYYADSVKGRFTISRDNAKNTVYLQMNSLKPVDTAVYYCAARDLRKLYSRYPYYYWGQGTQVTVSS | high polyreactivity
QVQLVESGGGLVQAGGSLRLSCAASGSIFYYNAMGWYRQEPGKERELVATITSAVSTNYADSVKGRFTISRDNAKNTVYLQMNSLKPEDTAVYYCATVYSLSFELDYWGQGTQVTVSS | low polyreactivity
QVQLVESGGGLVQAGGSLRLSCAASGSIFYYNVMGWYRQAPGKERELVAAIDIDGSTYYADSVKGRFTISRDNAKNTVYLQMNSLKPEDTAVYYCNAQAPYWFSFYSDHKYDYWGQGTQVTVSS | low polyreactivity
QVQLVESGGGLVQAGGSLRLSCAASGSIFYYYAMGRYRQAPGKERELVAAISSGGDTHYADSVKGRFTISRDNAKNTVYLQMNSLKPEDTAVFYCAAQRRYHQDTTIGPGNYYYWGQGTQVTVSS | low polyreactivity

Sequence | polyreactivity (PSR sort gate)
QVQLVESGGGLVQAGGSLRLSCAASGSIFYYYAMGWYRQAPGKEREFVAAITKRADRTYYADSVKGRFTISRDNAKNTVYLQMNSLKPEDTAVYYCNADFVWRNGYLGFYRYDYWGQGTQVTVSS | low polyreactivity
QVQLVESGGGLVQAGGSLRLSCAASGSIFYYYAMGWYRQAPGKERELVAAISRNGGSTSYADSVKGRFTISRDNAKNTVYLQMNSLKPEDTAVYYCNTYGGYKYDYWGQGTQVTVSS | low polyreactivity
QVQLVESGGGLVQAGGSLRLSCAASGSIFYYYAMGWYRQAPGKERELVAAISWCGGSTYYADSVKGRFTISRDNAKNTVYLQMNSLKPEDTAVYYCAAQRRYGDDYWGQGTQVTVSS | high polyreactivity
QVQLVESGGGLVQAGGSLRLSCAASGSIFYYYAMGWYRQAPGKERELVADISISGGSTYYADSVKGRFTISRDNAKNTVYLQMNSLKPEDTAVYYCAATDYLWEPTVSNWGYTFDSWGQGTQVTVSS | low polyreactivity
QVQLVESGGGLVQAGGSLRLSCAASGSIFYYYVMGWYRQAPGKEREFVAAISWGGDSTYYADSVKGRFTISRDNAKNTVYLQMNSLKPEDTAVYYCAAVRYNSRVSTTPSEMYYWGQGTQVTVSS | low polyreactivity
QVQLVESGGGLVQAGGSLRLSCAASGSIFYYYVMGWYRQAPGKERELVAAISSGGGTNYADSVKGRFTISRDNAKNTVYLQLNRLKPEDTAVYYCAKASAYGLANDYDYWGQGTLVTVSS | low polyreactivity
QVQLVESGGGLVQAGGSLRLSCAASGSIGYYVMGWYRQAPGKERELVAVITFGGASTYYADSVKGRFTISRDNAKNTVYLQMNSLKPEDTAVYYCARYQHRLVYGYGYWGQGTQVTVSS | low polyreactivity
QVQLVESGGGLVQAGGSLRLSCAASGSIIARYAMGWYRQAPGKETELVAAINSGTSTNYADSVKGRFTISRDNAKNTVYFQMHCLKPEDTEVYYCNTQWYVDNDTYTQTDYDYWGQGTQVTVSS | low polyreactivity
QVQLVESGGGLVQAGGSLRLSCAASGSIIARYAMGWYRQSPGKERELVAAITCSATSTYYADSVKGRFTISRDYAKNTVYLQLNSLKPEDTAVYYWNAGASYFLVISQSRRDYWGQGTQVTVSS | low polyreactivity
QVQLVESGGGLVQAGGSLRLSCAASGSIIDYNVMGWYRQAPGKEREFVAGISSTGGSTYYADSVKGRFSNSRDNAKHTVYLQMNSLKPEDTAVYYCAAYWNRAFRLDYWGQGTQVTVSS | high polyreactivity
QVQLVESGGGLVQAGGSLRLSCAASGSIIDYYAMGWYRQAPGKERELVADITVTGDGTYYADSVKGRFTISRDNAKNTVYLQMNSLKPEDTAVYYCAADFWLVSFQWDFEYDYWGQGTQVTVSS | low polyreactivity
QVQLVESGGGLVQAGGSLRLSCAASGSIIFNNAMGWYRQAPGKERELVAAITTGGSTYYADSVKGRFTISRDNAKNTVYLQMNSLKPEDTAVYYCAAVVVYPYRLGYDYWGQGTQVTVSS | low polyreactivity
QVQLVESGGGLVQAGGSLRLSCAASGSIIGFYAMGWYRQAPGKERELVARISKRGGITYYADSVKGRFTISRDNAKNTVDLQMNSLKPEDTAVYYCAVDRRVLWYHMDYWGQGTQVTLSS | high polyreactivity
QVQLVESGGGLVQAGGSLRLSCAASGSIIGIYDMGWYRQAPGKERELVAAISWSGGSTYYADSVKGRFTISRDNAKNTVYLQMNSLKPEDTAFYYCAARGHYQYYWGQGTQVTVSS | low polyreactivity
QVQLVESGGGLVQAGGSLRLSCAASGSIIGRYAMGWYRQAPGKERELVAAISTGGGRTYYADSVKGRFTISRDSAKNTVYFQLNSLKPEDTAVYYCNAGPYKGWGRMDYWGQGTQVNVSS | high polyreactivity
